Results published in US20120324602A1.

Legend:
[1] = target: importin alpha-2 (IMPA2) (Arabidopsis thaliana); assay: TAP-MS, N-terminal GS tag
[2] = target: T1, ATASE (Gln Phosphoribosyl Pyrophospate Amidotransferase 1) (Arabidopsis thaliana); assay: TAP-MS, N-terminal GS tag
T1 sequence (Q9SI61 59-566, looked up): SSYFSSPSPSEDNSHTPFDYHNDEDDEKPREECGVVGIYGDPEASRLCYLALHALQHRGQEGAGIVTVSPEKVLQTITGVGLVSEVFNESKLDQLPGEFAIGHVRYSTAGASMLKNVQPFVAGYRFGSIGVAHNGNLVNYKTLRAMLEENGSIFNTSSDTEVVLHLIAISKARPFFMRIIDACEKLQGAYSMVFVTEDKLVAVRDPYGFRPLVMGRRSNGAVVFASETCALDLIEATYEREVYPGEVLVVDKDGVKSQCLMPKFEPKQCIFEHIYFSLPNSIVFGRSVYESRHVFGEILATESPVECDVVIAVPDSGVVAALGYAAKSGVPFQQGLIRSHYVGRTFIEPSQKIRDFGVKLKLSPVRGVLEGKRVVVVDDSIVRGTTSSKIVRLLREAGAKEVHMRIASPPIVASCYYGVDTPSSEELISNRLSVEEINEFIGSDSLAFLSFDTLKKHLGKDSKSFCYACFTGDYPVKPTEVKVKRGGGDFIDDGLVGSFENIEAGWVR

[3] = target: T2, actin-related protein 7 (ARP7) (Arabidopsis thaliana); assay: TAP-MS, N-terminal GS tag
T2 sequence (Q8L4Y5 1-363, looked up): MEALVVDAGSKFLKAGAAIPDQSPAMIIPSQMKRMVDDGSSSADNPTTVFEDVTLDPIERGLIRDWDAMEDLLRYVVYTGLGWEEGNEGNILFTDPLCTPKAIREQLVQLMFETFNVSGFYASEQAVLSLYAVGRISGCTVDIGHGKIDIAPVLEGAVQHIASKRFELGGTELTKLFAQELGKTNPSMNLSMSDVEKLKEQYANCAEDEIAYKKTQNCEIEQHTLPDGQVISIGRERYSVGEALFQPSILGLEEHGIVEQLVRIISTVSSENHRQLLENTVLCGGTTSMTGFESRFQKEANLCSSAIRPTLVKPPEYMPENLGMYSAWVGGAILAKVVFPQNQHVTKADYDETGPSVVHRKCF

[4] = target: expressed protein, similar to DAG protein (AT3G15000) (Arabidopsis thaliana); assay: TAP-MS, N-terminal GS tag
[5] = target: acyl-(acyl-carrier-protein) desaturase (AT1G43800) (Arabidopsis thaliana); assay: TAP-MS, N-terminal GS tag
[6] = target: G2484-1, agenet domain-containing protein (Arabidopsis thaliana); assay: TAP-MS, N-terminal GS tag
[7] = target: SNF2 protein (BRM) (Arabidopsis thaliana); assay: TAP-MS, N-terminal GS tag
[8] = target: PTAC17 (PLASTID …ONALLY ACTIVE17) (Arabidopsis thaliana); assay: TAP-MS, N-terminal GS tag
[9] = target: T3, GAD (Glutamate decarboxylase); calmodulin binding (Arabidopsis thaliana); assay: TAP-MS, N-terminal GS tag
T3 sequence (Q42521 1-502, looked up): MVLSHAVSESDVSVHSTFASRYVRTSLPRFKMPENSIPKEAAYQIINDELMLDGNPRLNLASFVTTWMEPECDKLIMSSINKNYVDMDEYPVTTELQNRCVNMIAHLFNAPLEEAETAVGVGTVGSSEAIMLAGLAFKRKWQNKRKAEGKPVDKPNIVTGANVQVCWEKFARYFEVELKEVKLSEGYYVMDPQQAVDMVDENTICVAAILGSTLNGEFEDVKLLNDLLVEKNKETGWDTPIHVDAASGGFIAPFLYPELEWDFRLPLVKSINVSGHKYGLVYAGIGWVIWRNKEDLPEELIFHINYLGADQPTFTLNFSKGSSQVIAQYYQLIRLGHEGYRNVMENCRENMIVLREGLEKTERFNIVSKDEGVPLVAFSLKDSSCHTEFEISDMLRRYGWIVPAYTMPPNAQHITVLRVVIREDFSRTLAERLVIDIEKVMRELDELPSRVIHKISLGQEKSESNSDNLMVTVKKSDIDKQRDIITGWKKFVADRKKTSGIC

[10] = target: chromatin remodeling protein (SYD) (Arabidopsis thaliana); assay: TAP-MS, N-terminal GS tag
[11] = target: DNA-binding bromodomain-containing protein, similar to At1g20670 (AT5G55040) (Arabidopsis thaliana); assay: TAP-MS, C-terminal GS tag
[12] = target: T2, actin-related protein 7 (ARP7) (Arabidopsis thaliana); assay: TAP-MS, C-terminal GS tag
[13] = target: T4, SE (SERRATE) (Arabidopsis thaliana); assay: TAP-MS, C-terminal GS tag
T4 sequence (Q9ZVD0 1-720, looked up): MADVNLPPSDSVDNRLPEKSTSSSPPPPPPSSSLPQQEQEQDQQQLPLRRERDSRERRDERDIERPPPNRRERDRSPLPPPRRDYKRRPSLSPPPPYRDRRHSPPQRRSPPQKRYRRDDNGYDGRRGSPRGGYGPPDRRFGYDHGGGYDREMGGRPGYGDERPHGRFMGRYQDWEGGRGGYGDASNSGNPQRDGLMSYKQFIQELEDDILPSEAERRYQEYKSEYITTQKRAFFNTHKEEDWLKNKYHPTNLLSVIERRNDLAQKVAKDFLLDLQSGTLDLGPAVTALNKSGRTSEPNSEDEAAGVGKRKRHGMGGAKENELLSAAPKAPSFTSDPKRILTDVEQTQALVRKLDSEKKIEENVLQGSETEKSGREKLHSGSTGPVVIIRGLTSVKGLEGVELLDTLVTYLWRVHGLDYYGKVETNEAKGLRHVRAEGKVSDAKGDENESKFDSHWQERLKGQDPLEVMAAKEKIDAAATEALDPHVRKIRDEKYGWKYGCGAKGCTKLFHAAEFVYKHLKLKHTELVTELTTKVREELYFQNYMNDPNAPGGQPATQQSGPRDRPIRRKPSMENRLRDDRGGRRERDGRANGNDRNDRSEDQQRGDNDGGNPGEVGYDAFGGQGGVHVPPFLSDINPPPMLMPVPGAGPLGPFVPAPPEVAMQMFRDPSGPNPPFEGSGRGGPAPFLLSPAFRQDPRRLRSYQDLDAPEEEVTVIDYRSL

[14] = target: expressed protein, similar to At4g22320 (AT5G55210) (Arabidopsis thaliana); assay: TAP-MS, C-terminal GS tag
[15] = target: T5, SWIRM domain-containing protein (SWI3C) (Arabidopsis thaliana); assay: TAP-MS, C-terminal GS tag
T5 sequence (Q9XI07 1-807, looked up): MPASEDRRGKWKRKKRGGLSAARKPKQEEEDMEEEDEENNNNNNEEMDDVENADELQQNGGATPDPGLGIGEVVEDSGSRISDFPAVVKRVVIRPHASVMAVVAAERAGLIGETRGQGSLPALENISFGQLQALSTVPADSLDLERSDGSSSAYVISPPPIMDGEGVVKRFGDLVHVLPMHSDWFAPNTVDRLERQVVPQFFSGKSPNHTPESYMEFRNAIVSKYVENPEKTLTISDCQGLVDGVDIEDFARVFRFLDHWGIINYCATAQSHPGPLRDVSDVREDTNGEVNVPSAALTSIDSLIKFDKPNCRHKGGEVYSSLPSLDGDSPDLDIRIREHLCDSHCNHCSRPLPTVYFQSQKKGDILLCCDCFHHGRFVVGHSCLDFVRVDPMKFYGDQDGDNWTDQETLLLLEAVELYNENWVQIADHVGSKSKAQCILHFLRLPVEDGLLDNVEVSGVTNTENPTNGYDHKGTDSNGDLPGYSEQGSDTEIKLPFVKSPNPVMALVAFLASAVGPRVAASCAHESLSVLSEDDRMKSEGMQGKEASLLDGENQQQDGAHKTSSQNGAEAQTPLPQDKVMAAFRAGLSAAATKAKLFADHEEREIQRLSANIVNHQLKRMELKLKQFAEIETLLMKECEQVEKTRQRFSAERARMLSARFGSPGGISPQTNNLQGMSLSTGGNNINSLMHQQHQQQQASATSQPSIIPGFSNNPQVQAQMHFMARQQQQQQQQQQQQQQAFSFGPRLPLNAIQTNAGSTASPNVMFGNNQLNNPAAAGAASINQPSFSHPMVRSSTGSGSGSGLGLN

[16] = target: SWIB complex BAF60b domain-containing protein (Swp73B) (Arabidopsis thaliana); assay: TAP-MS, C-terminal GS tag
[17] = target: RD21 (RESPONSIVE TO …ON 21) (Arabidopsis thaliana); assay: TAP-MS, C-terminal GS tag
[18] = target: unknown protein, similar to At5g17510 (AT3G03460) (Arabidopsis thaliana); assay: TAP-MS, C-terminal GS tag
[19] = target: Swp73A (Arabidopsis thaliana); assay: TAP-MS, C-terminal GS tag
[20] = target: SNF2 protein (BRM) (Arabidopsis thaliana); assay: TAP-MS, C-terminal GS tag
[21] = target: expressed protein, similar to At3g03460 (AT5G17510) (Arabidopsis thaliana); assay: TAP-MS, C-terminal GS tag
[22] = target: DNA-binding bromodomain-containing protein, similar to At1g20670 (AT1G76380) (Arabidopsis thaliana); assay: TAP-MS, C-terminal GS tag
[23] = target: DNA-binding bromodomain-containing protein (AT1G20670) (Arabidopsis thaliana); assay: TAP-MS, C-terminal GS tag

B1: GS-AN3 (protein, UniProt Q8L8A5 1-210, looked up)
GRF1-interacting factor 1: MQQHLMQMQPMMAGYYPSNVTSDHIQQYLDENKSLILKIVESQNSGKLSECAENQARLQRNLMYLAAIADSQPQPPSVHSQYGSAGGGMIQGEGGSHYLQQQQATQQQQMTQQSLMAARSSMLYAQQQQQQQPYATLQHQQLHHSQLGMSSSSGGGGSSGLHILQGEAGGFHDFGRGKPEMGSGGGGEGRGGSSGDGGETLYLKSSDDGN
modifications: N-terminal GS tag
- N-GS (times co-purified) [1]: 1
- N-GS (times co-purified) [2]: 2
- N-GS (times co-purified) [3]: 3
- N-GS (times co-purified) [4]: 3
- N-GS (times co-purified) [5]: 1
- N-GS (times co-purified) [6]: 2
- N-GS (times co-purified) [7]: 2
- N-GS (times co-purified) [8]: 1
- N-GS (times co-purified) [9]: 1
- N-GS (times co-purified) [10]: 4

B2: ARP4-GS (protein, UniProt Q84M92 1-441, looked up)
Actin-related protein 4: MYGGDEVSAIVVDLGSHTCKAGYAGEDAPKAVFPSVIGAVDGVEAMDVDVDSTKTNSNSEDSKTESEKEKSKRKLYVGSQAMSYRRDHMEVLSPIKDGIVSDWDLVDNIWEHAFKSCLMIDPTEHPMLLAEPPLNTQQQREKAAELMFEKYKVPALFMAKNPVLTSFATGRATSLVVDCGGGSTTISPVHDGYVLQKAVVSSPLGGEFLTDCLLKSLESKGIKIRPRYSFKRKEVRAGEFQVEDVDIPDTTESYKLFCQRMIVGDIKDSICRVPDTPYDDKSYSNIPTTSYELPDGQTLEIGADRFKVPDVMFNPSIVQTIPGMEKYAEMIPSVRGLPHMVMESINKCDVDIRRELYSSILLAGGTSSMQQLKERLEKDLIEESPHSARVKVLASGNTTERRFSVWIGGSILASLGSFQQMWFSKSEYEEHGASYIQRKCP
modifications: C-terminal GS tag
- C-GS (times co-purified) [11]: 1
- C-GS (times co-purified) [12]: 2
- C-GS (times co-purified) [13]: 1
- C-GS (times co-purified) [14]: 1
- C-GS (times co-purified) [15]: 2
- C-GS (times co-purified) [16]: 2
- C-GS (times co-purified) [17]: 2
- C-GS (times co-purified) [18]: 1
- C-GS (times co-purified) [19]: 2
- C-GS (times co-purified) [20]: 2
- C-GS (times co-purified) [21]: 2
- C-GS (times co-purified) [22]: 2
- C-GS (times co-purified) [23]: 2
